Each block holds one binder with its values, some of them ahead of it.
Molecular target: T1, human TL1A (Fitzgerald #30R-AT070) (human, UniProt O95150 72-251, limits assumed)
T1 construct: Coated on the ELISA plate at 1 ug/mL; also called TNFSF15
T1 sequence (looked up): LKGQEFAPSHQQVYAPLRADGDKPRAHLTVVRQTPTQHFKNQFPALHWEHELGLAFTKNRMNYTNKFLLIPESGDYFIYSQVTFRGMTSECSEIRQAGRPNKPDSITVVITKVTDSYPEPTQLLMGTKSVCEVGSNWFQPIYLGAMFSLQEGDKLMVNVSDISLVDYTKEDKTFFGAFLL
Experiment: ELISA titration, coated human TL1A, culture supernatant

B1: A140 (antibody, human IgG1, V domains shown)
VH: QVQLVQSGAEVKKPGASVKVSCKASGFDIQDTYMHWVRQRPGQGLEWMGRIDPASGHTKYDPKFQVRVTITTDTSTSTAYLELSSLRSEDTAVYYCARSGGLPDVWGQGTTVTVSS
VL: EIVLTQSPGTLSLSPGERATLSCRASSSVSYMYWYQQKPGQAPRLLIYATSNLASGIPDRFSGSGSGTDFTLTISRLEPEDFAVYYCQQWEGNPRTFGGGTKLEIK
notes: human IgG1/kappa (pFuse vectors), culture supernatant
Kd: 73 pM

B2: A141 (antibody, human IgG1, V domains shown)
VH: QVQLVQSGAEVKKPGASVKVSCKASGFDIQDTYMHWVRQRPGQGLEWMGRIDPASGHTKYDPKFQVRVTITRDTSTSTAYLELSSLRSEDTAVYYCARSGGLPDVWGQGTTVTVSS
VL: EIVLTQSPGTLSLSPGERATLSCRASSSVSYMYWYQQKPGQAPRLLIYATSNLASGIPDRFSGSGSGTDFTLTISRLEPEDFAVYYCQQWSRNPRTFGGGTKLEIK
notes: as for B1
Kd: 108 pM

B3: A142 (antibody, human IgG1, V domains shown)
VH: QVQLVQSGAEVKKPGASVKVSCKASGFDIQDTYMHWVRQRPGQGLEWMGRIDPASGHTKYDPKFQVRVTITRDTSTSTAYLELSSLRSEDTAVYYCARSGGLPDVWGQGTTVTVSS
VL: EIVLTQSPGTLSLSPGERATLSCRASSSVSYMYWYQQKPGQAPRLLIYATSNLASGIPDRFSGSGSGTDFTLTISRLEPEDFAVYYCQQWEGNPRTFGGGTKLEIK
notes: as for B1
Kd: 126 pM

B15: A30 (antibody, human IgG1, V domains shown)
VH: QVQLVQSGAEVKKPGASVKVSCKASGFDIQDTYMHWVKQRPGQGLEWIGRIDPASGHTKYDPKFQVRATITTDTSTSTAYLELSSLRSEDTAVYYCARSGGLPDVWGQGTTVTVSS
VL: EIVLTQSPGTLSLSPGERATLSCRASSSVSYMYWYQQKPGQAPRLLIYATSNLASGIPDRFSGSGSGTDFTLTISRLEPEDFAVYYCQQWKGNPRTFGGGTKLEIK
notes: as for B1
Kd: 77 pM

B16: A34 (antibody, human IgG1, V domains shown)
VH: QVQLVQSGAEVKKPGASVKVSCKASGFDIQDTYMHWVRQRPGQGLEWIGRIDPASGHTKYDPKFQVRATITTDTSTSTAYLELSSLRSEDTAVYYCARSGGLPDVWGQGTTVTVSS
VL: EIVLTQSPGTLSASPGERATMSCRASSSVSYMYWYQQKPGQAPRPWIYATSNLASGVPDRFSGSGSGTDYTLTISRVEPEDFAVYYCQQWSGNPRTFGGGTKLEIK
notes: as for B1
Kd: < 50 pM

B17: A35 (antibody, human IgG1, V domains shown)
VH: QVQLVQSGAEVKKPGASVKVSCKASGFDIQDTYMHWVKQAPGQGLEWIGRIDPASGHTKYDPKFQVRATITTDTSTSTAYLELSSLRSEDTAVYYCARSGGLPDVWGQGTTVTVSS
VL: EIVLTQSPGTLSASPGERATMSCRASSSVSYMYWYQQKPGQAPRPWIYATSNLASGVPDRFSGSGSGTDYTLTISRVEPEDFAVYYCQQWSGNPRTFGGGTKLEIK
notes: as for B1
Kd: 72 pM

B18: A36 (antibody, human IgG1, V domains shown)
VH: QVQLVQSGAEVKKPGASVKVSCKASGFDIQDTYMHWVRQAPGQGLEWIGRIDPASGHTKYDPKFQVRATITTDTSTSTAYLELSSLRSEDTAVYYCARSGGLPDVWGQGTTVTVSS
VL: EIVLTQSPGTLSASPGERATMSCRASSSVSYMYWYQQKPGQAPRPWIYATSNLASGVPDRFSGSGSGTDYTLTISRVEPEDFAVYYCQQWSGNPRTFGGGTKLEIK
notes: as for B1
Kd: < 50 pM

B19: A37 (antibody, human IgG1, V domains shown)
VH: QVQLVQSGAEVKKPGASVKVSCKASGFDIQDTYMHWVKQRPGQGLEWMGRIDPASGHTKYDPKFQVRATITTDTSTSTAYLELSSLRSEDTAVYYCARSGGLPDVWGQGTTVTVSS
VL: EIVLTQSPGTLSASPGERATMSCRASSSVSYMYWYQQKPGQAPRPWIYATSNLASGVPDRFSGSGSGTDYTLTISRVEPEDFAVYYCQQWSGNPRTFGGGTKLEIK
notes: as for B1
Kd: 34 pM

B20: A38 (antibody, human IgG1, V domains shown)
VH: QVQLVQSGAEVKKPGASVKVSCKASGFDIQDTYMHWVKQRPGQGLEWIGRIDPASGHTKYDPKFQVRATITTDTSTSTVYLELSSLRSEDTAVYYCARSGGLPDVWGQGTTVTVSS
VL: EIVLTQSPGTLSASPGERATMSCRASSSVSYMYWYQQKPGQAPRPWIYATSNLASGVPDRFSGSGSGTDYTLTISRVEPEDFAVYYCQQWSGNPRTFGGGTKLEIK
notes: as for B1
Kd: 103 pM

B21: A39 (antibody, human IgG1, V domains shown)
VH: QVQLVQSGAEVKKPGASVKVSCKASGFDIQDTYMHWVKQRPGQGLEWIGRIDPASGHTKYDPKFQVRATITTDTSTSTAYMELSSLRSEDTAVYYCARSGGLPDVWGQGTTVTVSS
VL: EIVLTQSPGTLSASPGERATMSCRASSSVSYMYWYQQKPGQAPRPWIYATSNLASGVPDRFSGSGSGTDYTLTISRVEPEDFAVYYCQQWSGNPRTFGGGTKLEIK
notes: as for B1
Kd: 125 pM

B22: A40 (antibody, human IgG1, V domains shown)
VH: QVQLVQSGAEVKKPGASVKVSCKASGFDIQDTYMHWVKQRPGQGLEWIGRIDPASGHTKYDPKFQVRATITTDTSTSTVYMELSSLRSEDTAVYYCARSGGLPDVWGQGTTVTVSS
VL: EIVLTQSPGTLSASPGERATMSCRASSSVSYMYWYQQKPGQAPRPWIYATSNLASGVPDRFSGSGSGTDYTLTISRVEPEDFAVYYCQQWSGNPRTFGGGTKLEIK
notes: as for B1
Kd: < 50 pM

Further lines, results first:

Kd: 85 pM
B4: A143 (antibody, human IgG1, V domains shown)
VH: QVQLVQSGAEVKKPGASVKVSCKASGFDIQDTYMHWVRQAPGQGLEWMGRIEPASGHIKYDPKFQGRVTMTRDTSTSTVYMELSSLRSEDTAVYYCARSGGLPDWWGQGTTVTVSS
VL: EIVLTQSPGTLSLSPGERATLSCRASSSVSYMYWYQQKPGQAPRLLIYATSNLASGIPDRFSGSGSGTDFTLTISRLEPEDFAVYYCQQWEGNPRTFGGGTKLEIK
notes: as for B1

Kd: 70 pM
B5: A145 (antibody, human IgG1, V domains shown)
VH: QVQLVQSGAEVKKPGASVKVSCKASGFDIQDTYMHWVRQAPGQGLEWMGRIEPASGHIKYDPKFQGRVTMTRDTSTSTAYMELSSLRSEDTAVYYCARSGGLPDWWGQGTTVTVSS
VL: EIVLTQSPGTLSLSPGERATLSCRASSSVSYMYWYQQKPGQAPRPLIYATSNLASGIPDRFSGSGSGTDFTLTISRLEPEDFAVYYCQQWEGNPRTFGGGTKLEIK
notes: as for B1

Kd: 65 pM
B6: A146 (antibody, human IgG1, V domains shown)
VH: QVQLVQSGAEVKKPGASVKVSCKASGFDIQDTYMHWVKQAPGQGLEWMGRIEPASGHIKYDPKFQGRVTMTRDTSTSTVYMELSSLRSEDTAVYYCARSGGLPDWWGQGTTVTVSS
VL: EIVLTQSPGTLSLSPGERATLSCRASSSVSYMYWYQQKPGQAPRPLIYATSNLASGIPDRFSGSGSGTDFTLTISRLEPEDFAVYYCQQWEGNPRTFGGGTKLEIK
notes: as for B1

Kd: 63 pM
B7: A147 (antibody, human IgG1, V domains shown)
VH: QVQLVQSGAEVKKPGASVKVSCKASGFDIQDTYMHWVKQRPGQGLEWMGRIEPASGHIKYDPKFQGRVTMTRDTSTSTVYMELSSLRSEDTAVYYCARSGGLPDWWGQGTTVTVSS
VL: EIVLTQSPGTLSLSPGERATLSCRASSSVSYMYWYQQKPGQAPRPLIYATSNLASGIPDRFSGSGSGTDFTLTISRLEPEDFAVYYCQQWEGNPRTFGGGTKLEIK
notes: as for B1

Kd: 48 pM
B8: A149 (antibody, human IgG1, V domains shown)
VH: QVQLVQSGAEVKKPGASVKVSCKASGFDIQDTYMHWVRQAPGQGLEWMGRIEPASGHIKYDPKFQVRATMTRDTSTSTVYMELSSLRSEDTAVYYCARSGGLPDWWGQGTTVTVSS
VL: EIVLTQSPGTLSLSPGERATLSCRASSSVSYMYWYQQKPGQAPRPLIYATSNLASGIPDRFSGSGSGTDFTLTISRLEPEDFAVYYCQQWEGNPRTFGGGTKLEIK
notes: as for B1

Kd: 59 pM
B9: A150 (antibody, human IgG1, V domains shown)
VH: QVQLVQSGAEVKKPGASVKVSCKASGFDIQDTYMHWVRQAPGQGLEWMGRIEPASGHIKYDPKFQGRATMTRDTSTSTVYMELSSLRSEDTAVYYCARSGGLPDWWGQGTTVTVSS
VL: EIVLTQSPGTLSLSPGERATLSCRASSSVSYMYWYQQKPGQAPRPLIYATSNLASGIPDRFSGSGSGTDFTLTISRLEPEDFAVYYCQQWEGNPRTFGGGTKLEIK
notes: as for B1

Kd: 57 pM
B10: A151 (antibody, human IgG1, V domains shown)
VH: QVQLVQSGAEVKKPGASVKVSCKASGFDIQDTYMHWVRQAPGQGLEWMGRIEPASGHIKYDPKFQVRATITRDTSTSTVYMELSSLRSEDTAVYYCARSGGLPDWWGQGTTVTVSS
VL: EIVLTQSPGTLSLSPGERATLSCRASSSVSYMYWYQQKPGQAPRPLIYATSNLASGIPDRFSGSGSGTDFTLTISRLEPEDFAVYYCQQWEGNPRTFGGGTKLEIK
notes: as for B1

Kd: 58 pM
B11: A152 (antibody, human IgG1, V domains shown)
VH: QVQLVQSGAEVKKPGASVKVSCKASGFDIQDTYMHWVRQAPGQGLEWMGRIEPASGHIKYDPKFQGRATITTDTSTSTVYMELSSLRSEDTAVYYCARSGGLPDWWGQGTTVTVSS
VL: EIVLTQSPGTLSLSPGERATLSCRASSSVSYMYWYQQKPGQAPRPLIYATSNLASGIPDRFSGSGSGTDFTLTISRLEPEDFAVYYCQQWEGNPRTFGGGTKLEIK
notes: as for B1

Kd: 49 pM
B12: A153 (antibody, human IgG1, V domains shown)
VH: QVQLVQSGAEVKKPGASVKVSCKASGFDIQDTYMHWVRQAPGQGLEWMGRIEPASGHIKYDPKFQGRVTMTRDTSTSTAYMELSSLRSEDTAVYYCARSGGLPDWWGQGTTVTVSS
VL: EIVLTQSPGTLSLSPGERATLSCRASSSVSYMYWYQQKPGQAPRPWIYATSNLASGIPDRFSGSGSGTDFTLTISRLEPEDFAVYYCQQWEGNPRTFGGGTKLEIK
notes: as for B1

Kd: 66 pM
B13: A154 (antibody, human IgG1, V domains shown)
VH: QVQLVQSGAEVKKPGASVKVSCKASGFDIQDTYMHWVKQAPGQGLEWMGRIEPASGHIKYDPKFQGRVTMTRDTSTSTVYMELSSLRSEDTAVYYCARSGGLPDWWGQGTTVTVSS
VL: EIVLTQSPGTLSLSPGERATLSCRASSSVSYMYWYQQKPGQAPRPWIYATSNLASGIPDRFSGSGSGTDFTLTISRLEPEDFAVYYCQQWEGNPRTFGGGTKLEIK
notes: as for B1

Kd: 67 pM
B14: A155 (antibody, human IgG1, V domains shown)
VH: QVQLVQSGAEVKKPGASVKVSCKASGFDIQDTYMHWVRQAPGQGLEWMGRIEPASGHIKYDPKFQVRVTMTRDTSTSTVYMELSSLRSEDTAVYYCARSGGLPDWWGQGTTVTVSS
VL: EIVLTQSPGTLSLSPGERATLSCRASSSVSYMYWYQQKPGQAPRPWIYATSNLASGIPDRFSGSGSGTDFTLTISRLEPEDFAVYYCQQWEGNPRTFGGGTKLEIK
notes: as for B1
